# Measured values reported in publication doi:10.1101/2023.10.06.561273, “Bacterial cell surface nanoenvironment requires a specialized chaperone to activate a peptidoglycan biosynthetic enzyme” (bioRxiv, 2023).
# B1: SpoVK-His6 (enzyme, B. subtilis, UniProt P27643 1-322, looked up)
# chain: MLERAVTYKNNGQINIILNGQKQVLTNAEAEAEYQAALQKNEAKHGILKEIEKEMSALVGMEEMKRNIKEIYAWIFVNQKRAEQGLKVGKQALHMMFKGNPGTGKTTVARLIGKLFFEMNVLSKGHLIEAERADLVGEYIGHTAQKTRDLIKKSLGGILFIDEAYSLARGGEKDFGKEAIDTLVKHMEDKQHEFILILAGYSREMDHFLSLNPGLQSRFPISIDFPDYSVTQLMEIAKRMIDEREYQLSQEAEWKLKDYLMTVKSTTSPIKFSNGRFVRNVIEKSIRAQAMRLLMGDQYLKSDLMTIKSQDLSIKEEASGSA
# notes: SpoVK, AAA+ ATPase of Bacillus subtilis; also called purified SpoVK
# Biological target: the molecule itself
# Assay: SEC; renatured SpoVK-His6 on Superdex 200 Increase in renaturation buffer (500 mM L-arginine, 100 mM NaCl, pH 7.5), 0.75 ml/min; final peak
protein,measurement,value
B1,stoichiometry N,~3
